Experimental data published in US20220401484A1 (BIONTECH, published 2022).

Experiments:
[1] = molecular target: PRAME peptide … presented by the HLA-A*02:01-encoded molecule (human); test: cell-based or functional assay
[2] = molecular target: T1, PRAME peptide on HLA-A*02:02 (human); test: cytokine release
T1 peptide: SLLQHLIGL

[3] = molecular target: T2, PRAME peptide on HLA-A*02:04 (human); test: cytokine release
T2 peptide: SLLQHLIGL

[4] = molecular target: T3, irrelevant peptide peptide on HLA-A*02:01 (human); test: cytokine release
T3 peptide: GLSNTHVL

[5] = molecular target: T4, PRAME peptide on HLA-A*02:01 (human); test: IFN-gamma immunoassay; general statement of the description and claim 4; the same paragraph says preferably less than 10^-8 M (FIG. 2); full-length, on cells
T4 peptide: SLLQHLIGL

B1: TCR T23.8-2.1-027-004 (TCR, V domains shown)
V domain 1: GQQLNQSPQSMFIQEGEDVSMNCTSSSIFNTWLWYKQDPGEGPVLLIALYKAGELTSNGRLTAQFGITRKDSFLNISASIPSDVGIYFCAGLADYGGSQGNLIFGKGTKLSVKP
V domain 2: DSGVTQTPKHLITATGQRVTLRCSPRSGDLSVYWYQQSLDQGLQFLIQYYNGEERAKGNILERFSAQQFPDLHSELNLSSLELGDSALYFCASSVWASGGYEQYFGPGTRLTVTE
EC50 value of the relative IFN-gamma release (peptide concentration on T2 cells) [1]: 11.6 nM

B2: TCR T23.8-2.1-027-004 (TCR, V domains shown)
Valpha: GQQLNQSPQSMFIQEGEDVSMNCTSSSIFNTWLWYKQDPGEGPVLLIALYKAGELTSNGRLTAQFGITRKDSFLNISASIPSDVGIYFCAGLADYGGSQGNLIFGKGTKLSVKP
Vbeta: DSGVTQTPKHLITATGQRVTLRCSPRSGDLSVYWYQQSLDQGLQFLIQYYNGEERAKGNILERFSAQQFPDLHSELNLSSLELGDSALYFCASSVWASGGYEQYFGPGTRLTVT
binding result [2]: recognises | binding result [3]: recognises | binding result [4]: no recognition | EC50 of peptide [5]: < 100 nM
